# Source: PMC11309785
# B1: RM_N332_08 Fab (Fab, V domains shown)
# VH: QVQLVQSGAEVKKPGSSVKVSCKASGYTFTDHYIHWVRQAPRQGLEWMGWINPYNGNTNYAQKFQGRVTLTRDTSTTTVYMELISLRSEDTAVYYCARGGEYCTGFGCFAGKGDNSLDVWGRGVLVSVSS
# VL: DIVMIQTPLSLPVTPGEPASISCRSSQSLFDIEDETTYLEWFLQKPGQSPQPLIYEVSNRASGVPDRFSGSGSDTAFTLKISRVEAEDVGIYYCMQGIEYPFTFGPGTKVEIK
# B2: RM_N332_07 Fab (Fab, V domains shown)
# VH: QVQLQESGPGLVKPSETLSLTCAVSGASFSSFWWDWIRQPPGRGLEWIGDINGNSGSTNYNPSLKSRVTISKDASKSQFSLKLTSVTAADTAVYYCALQSVTYYEDDSGHYETEMAKFWGQGVLVTVSS
# VL: QPVLTQPPSVSGAPGQRVTISCSGSSSNIGGYHVQWYQQLPGTAPKLLIYESNKRPSGISDRFSASQFGTSASLTITGLQSEDEADYYCQSYDSSVSAQVFGGGTRLTVL
# Biological target: BG505_B23 trimer, His-tagged (HIV-1 isolate BG505)
# Assay: SPR; ProteOn XPR36, HC30M XanTec chip; His-tagged trimer (300 to 400 RU, 1 ug/mL) captured by immobilised rabbit anti-His-tag pAb, Fab flowed as analyte at 30 ul/min for 3 min, 5 min dissociation; 1x HBS-EP+ pH 7.4 with BSA 1 mg/ml; equilibrium or kinetic (Langmuir) fits; highest concentration 2x10^-5 M, approximate upper affinity limit 1.6x10^-11 M
row,Binder,Kd [nM]
1,B1,< 100
2,B2,< 100
